Results taken from article PMC11579514, “Validation of NBD-coupled taurocholic acid for intravital analysis of bile acid transport in liver and kidney of mice” (EXCLI Journal, 2024).

B1: mAsbt (mouse apical sodium-dependent bile acid transporter) (Mus musculus) (protein)
chain: MDNSSVCPPNATVCEGDSCVVPESNFNAILNTVMSTVLTILLAMVMFSMGCNVEVHKFLGHIKRPWGIFVGFLCQFGIMPLTGFILSVASGILPVQAVVVLIMGCCPGGTGSNILAYWIDGDMDLSVSMTTCSTLLALGMMPLCLFVYTKMWVDSGTIVIPYDSIGISLVALVIPVSFGMFVNHKWPQKAKIILKIGSITGVILIVLIAVIGGILYQSAWIIEPKLWIIGTIFPIAGYSLGFFLARLAGQPWYRCRTVALETGMQNTQLCSTIVQLSFSPEDLNLVFTFPLIYTVFQLVFAAVILGIYVTYRKCYGKNDAEFLEKTDNEMDSRPSFDETNKGFQPDEK
notes: full open reading frame with C-terminal FLAG, stably expressed in HEK293
B2: mNtcp (mouse Na+/taurocholate co-transporting polypeptide) (Mus musculus) (protein)
chain: MEAHNVSAPFNFSLPPGFGHRATDTALSVILVVMLLLIMLSLGCTMEFSKIKAHFWKPKGVIIAIVAQYGIMPLSAFLLGKVFHLTSIEALAILICGCSPGGNLSNLFTLAMKGDMNLSIVMTTCSSFTALGMMPLLLYIYSKGIYDGDLKDKVPYKGIMLSLVMVLIPCAIGIFLKSKRPHYVPYVLKAGMIITFSLSVAVTVLSVINVGNSIMFVMTPHLLATSSLMPFTGFLMGYILSALFRLNPSCRRTISMETGFQNVQLCSTILNVTFPPEVIGPLFFFPLLYMIFQLAEGLLFIIIFRCYLKIKPQKDQTKITYKAAATEDATPAALEKGTHNGNNPPTQPGLSPNGLNSGQMAN
notes: as for B1

Legend:
[1] = substrate: C[C@H](CCC(=O)NCCS(=O)(=O)O)[C@H]1CC[C@H]2[C@@H]3[C@H](O)C[C@@H]4C[C@@H](Nc5ccc([N+](=O)[O-])c6nonc56)CC[C@]4(C)[C@H]3C[C@H](O)[C@]12C; assay: sodium-dependent fluorescent uptake kinetics (Km) in mAsbt-HEK cells; assay type: cell-based, Mus musculus; conditions: Na+
[2] = substrate: C[C@H](CCC(=O)NCCS(=O)(=O)O)[C@H]1CC[C@H]2[C@@H]3[C@H](O)C[C@@H]4C[C@@H](Nc5ccc([N+](=O)[O-])c6nonc56)CC[C@]4(C)[C@H]3C[C@H](O)[C@]12C; assay: sodium-dependent fluorescent uptake kinetics (Km) in mNtcp-HEK cells; assay type: cell-based, Mus musculus; conditions: Na+

Protein | Km [1] [µM] | Km [2] [µM]
B1 | 19.1 | 
B2 |  | 23.3
